From patent US20210069244A1

Target: CD19 antigen on CD19 positive RS4;11 and Raji cells (human) (UniProt P15391)
Assay: cell-based or functional assay

Chain of UniProt P15391 (P15391 20-556): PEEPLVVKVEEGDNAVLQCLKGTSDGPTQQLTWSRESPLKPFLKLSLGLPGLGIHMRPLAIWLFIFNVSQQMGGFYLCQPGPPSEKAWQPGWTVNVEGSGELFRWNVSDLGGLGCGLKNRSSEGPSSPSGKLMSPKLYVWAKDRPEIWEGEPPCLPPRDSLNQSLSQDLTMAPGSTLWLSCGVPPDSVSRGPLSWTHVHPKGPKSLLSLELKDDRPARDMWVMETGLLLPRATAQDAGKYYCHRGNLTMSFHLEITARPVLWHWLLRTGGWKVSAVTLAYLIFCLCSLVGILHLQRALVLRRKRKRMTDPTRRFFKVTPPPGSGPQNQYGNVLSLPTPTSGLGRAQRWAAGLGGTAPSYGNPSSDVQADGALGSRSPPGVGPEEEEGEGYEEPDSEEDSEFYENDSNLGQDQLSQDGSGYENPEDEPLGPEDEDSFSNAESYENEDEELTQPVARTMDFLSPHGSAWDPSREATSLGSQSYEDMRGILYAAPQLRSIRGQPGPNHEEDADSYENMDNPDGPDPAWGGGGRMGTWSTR

percentage of CD19 positive RS4;11 cells remaining after 24 h co-culture with CAR-T cells: 45.1%
percentage of CD19 positive Raji cells remaining after 24 h co-culture with CAR-T cells: 7.42%
Substance: FMC63 artificial CAR19
cytotoxicity, RS4;11 cells, CAR19 T cell:tumor cell 5:1, donor 1, 4 h co-culture (calcein AM/PI flow cytometry): 45.8%
cytotoxicity, RS4;11 cells, CAR19 T cell:tumor cell 5:1, donor 2, 4 h co-culture (calcein AM/PI flow cytometry): 65.6%
cytotoxicity, RS4;11 cells, CAR19 T cell:tumor cell 10:1, donor 1, 4 h co-culture (calcein AM/PI flow cytometry): 55.8%
cytotoxicity, RS4;11 cells, CAR19 T cell:tumor cell 10:1, donor 2, 4 h co-culture (calcein AM/PI flow cytometry): 77.1%
cytotoxicity, Raji cells, CAR19 T cell:tumor cell 1:1, donor 1, 4 h co-culture (calcein AM/PI flow cytometry): 4.17%
cytotoxicity, Raji cells, CAR19 T cell:tumor cell 1:1, donor 2, 4 h co-culture (calcein AM/PI flow cytometry): 46.4%
cytotoxicity, Raji cells, CAR19 T cell:tumor cell 2:1, donor 1, 4 h co-culture (calcein AM/PI flow cytometry): 25.3%
cytotoxicity, Raji cells, CAR19 T cell:tumor cell 2:1, donor 2, 4 h co-culture (calcein AM/PI flow cytometry): 59.9%
